Data on 1 substance can be found in paper PMC10360031.

Experiment [1] addresses recombinant human Vim (human) (UniProt P08670). The experiment is described as follows: AFM single-molecule force spectroscopy.
For experiment [2] the target is unchanged. The experiment is described as follows: quartz crystal microbalance with dissipation (QCM-D).
Experiment [3] has the same target. The experiment is described as follows: quartz crystal microbalance with dissipation (QCM-D); pH 7.4.

Sequence of recombinant human Vim (human) (P08670 whole entry): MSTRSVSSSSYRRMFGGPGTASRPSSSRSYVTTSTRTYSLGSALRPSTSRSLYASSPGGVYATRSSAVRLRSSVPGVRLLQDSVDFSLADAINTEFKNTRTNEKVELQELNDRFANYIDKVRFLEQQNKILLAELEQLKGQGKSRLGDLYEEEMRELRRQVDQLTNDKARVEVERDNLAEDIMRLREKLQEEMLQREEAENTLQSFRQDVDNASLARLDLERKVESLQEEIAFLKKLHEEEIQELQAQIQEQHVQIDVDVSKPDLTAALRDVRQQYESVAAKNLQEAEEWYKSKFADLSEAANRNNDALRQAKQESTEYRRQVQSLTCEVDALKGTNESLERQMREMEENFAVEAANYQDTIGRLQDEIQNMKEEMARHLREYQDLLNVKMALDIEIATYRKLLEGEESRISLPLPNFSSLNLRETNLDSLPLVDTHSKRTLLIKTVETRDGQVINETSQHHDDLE

On to “wild-strain SARS-CoV-2 spike protein RBD (from UniProt P0DTC2) (domain or fragment)”, for which, in experiment [1], the binding probability (specific adhesion events) (% of force curves) was < 20 and the rupture force at 5 um/s amounted to 58 pN. In experiment [2], the Ka (equilibrium adsorption constant), fraction I is 0.0011 cm; the Ka (equilibrium adsorption constant), fraction II was 0.46 cm; the Keq, fraction I came out at 4.7e+06 L mol^–1; the Keq, fraction II stood at 9.2e+08 L mol^–1. For the same substance, in experiment [2], the desorption time, loosely bound fraction worked out at 200 s; the desorption time, tightly bound fraction is > 10000 s; the kd' (desorption constant), fraction I was 0.063 s^–1; the kd' (desorption constant), fraction II was determined as 0.00015 s^–1. Besides, the adsorbed amount in experiment [3] was determined as 1 mg m^–2.
